Measured values from article PMC10336103, “ResR/McdR-regulated protein translation machinery contributes to drug resilience in Mycobacterium tuberculosis” (Communications Biology, 2023).

Target: the molecule itself
Assay: SEC; […], pH 8.0, 150 mM NaCl; flow rate 0.4 ml/min; […]

B1: ResR/McdR (ResR_(1-225)), 6x His-tagged (natural protein)
chain: MTQLVTRARSARGSTLGEQPRQDQLDFADHTGTAGDGNDGAAAASGPVQPGLFPDDSVPDELVGYRGPSACQIAGITYRQLDYWARTSLVVPSIRSAAGSGSQRLYSFKDILVLKIVKRLLDTGISLHNIRVAVDHLRQRGVQDLANITLFSDGTTVYECTSAEEVVDLLQGGQGVFGIAVSGAMRELTGVIADFHGERADGGESIAAPEDELASRRKHRDRKIG
notes: also called Rv1830; ERDMAN_2020; not shown: His6, N-terminal, kept
- binding result: binds
